Assay [1] addresses cynomolgus monkey EL (cynomolgus monkey). Nature of the assay: cell-based or functional assay.
For a further assay, the target named is rabbit EL (rabbit). Nature of the assay: cell-based or functional assay.
For assay [2], the target named is baboon EL (baboon). Kind of assay: cell-based or functional assay.
Assay [3] has as its target cynomolgus monkey EL (cynomolgus monkey). Nature of the assay: cell-based or functional assay. The source holds these as a separate data set.
Assay [4] has as its target human-mouse chimeric EL (construct not specified). Nature of the assay: cell-based or functional assay.
The target in assay [5] is T1, baboon EL (baboon).
T1 construct: Heparin extract
Nature of the assay: ELISA: antibody captured on anti-mouse IgG-Fc plate, EL heparin extract added, detection with biotin anti-C2-tag antibody and HRP-streptavidin, A450. How it is done: (§1) Assay buffer containing 15 μl of anti-EL antibody was added to anti-mouse IgG-Fc antibody-immobilized microtiter plate, and incubated for 2 hr. […] After washing the wells three times with 90 μL of washing buffer, 15 μl of assay buffer containing biotin-labeled anti-C2-tag antibody and HRP-labeled Streptavidin were added to the wells and incubated at room temperature for 1 hr. After washing the wells three times with 90 μL of washing buffer, 15 μL of TMB+—Substrate—Chromogen (DAKO) was added and incubated at room temperature for 30 min and then 15 μL of 0.05 M H2SO₄ was added and absorbance at 450 nm was measured (FIG. 3A to 3K).
A general note: ELISA stands for enzyme-linked immunosorbent assay.

The target of assay [6] is T2, cynomolgus monkey EL (cynomolgus monkey).
T2 construct: Heparin extract; also called cynomolgus EL; Cynomolgus EL
Described as above. The method, then:
as §1

Assay [7] has as its target T3, human [1-157]-mouse chimeric EL (human; mouse, UniProt Q9WVG5 158-500).
T3 construct: Heparin extract, detected by an anti-C2-tag antibody
T3 sequence: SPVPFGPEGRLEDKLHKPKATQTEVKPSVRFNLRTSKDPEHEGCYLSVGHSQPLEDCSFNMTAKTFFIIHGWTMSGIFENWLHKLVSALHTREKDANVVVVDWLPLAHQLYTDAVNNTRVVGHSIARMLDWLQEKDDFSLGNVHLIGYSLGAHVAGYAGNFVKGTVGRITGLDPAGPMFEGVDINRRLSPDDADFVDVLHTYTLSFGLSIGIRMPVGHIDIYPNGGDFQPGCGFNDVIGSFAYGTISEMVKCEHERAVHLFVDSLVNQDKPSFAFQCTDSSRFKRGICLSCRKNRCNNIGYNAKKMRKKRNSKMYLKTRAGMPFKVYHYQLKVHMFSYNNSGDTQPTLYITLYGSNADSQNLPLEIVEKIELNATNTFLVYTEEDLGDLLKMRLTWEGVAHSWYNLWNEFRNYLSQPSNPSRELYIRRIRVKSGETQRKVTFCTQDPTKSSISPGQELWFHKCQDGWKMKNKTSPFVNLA
The description is as above. The method, then: as §1

For assay [8], the target named is T4, mouse EL (mouse, UniProt Q9WVG5 21-500).
T4 construct: Heparin extract
T4 sequence (looked up): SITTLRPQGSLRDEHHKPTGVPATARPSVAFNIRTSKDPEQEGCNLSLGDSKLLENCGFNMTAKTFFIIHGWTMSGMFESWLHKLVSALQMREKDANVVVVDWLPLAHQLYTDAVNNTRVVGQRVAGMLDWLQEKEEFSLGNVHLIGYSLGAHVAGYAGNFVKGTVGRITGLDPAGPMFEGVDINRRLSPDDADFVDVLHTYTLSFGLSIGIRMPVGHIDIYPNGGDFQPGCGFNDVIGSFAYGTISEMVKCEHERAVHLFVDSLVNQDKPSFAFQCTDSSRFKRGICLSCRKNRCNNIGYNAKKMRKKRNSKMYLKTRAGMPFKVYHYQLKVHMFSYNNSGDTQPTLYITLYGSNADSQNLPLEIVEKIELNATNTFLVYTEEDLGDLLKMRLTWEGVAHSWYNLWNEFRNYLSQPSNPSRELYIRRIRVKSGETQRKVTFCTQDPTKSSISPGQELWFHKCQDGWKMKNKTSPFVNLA
The description is as above. How it is done:
as §1

Assay [9] deals with T1, baboon EL. Nature of the assay: Biacore; EL captured by anti-C2-tag Ab; bivalent fit. How it is done:
(§2) The binding affinities of anti-EL antibodies were measured using Biacore. […] Then, anti-EL antibodies were added and the binding affinities were calculated by bivalent fitting of BIAevaluation software.
Background: SPR reads the build-up and loss of mass on a sensor chip optically.

For assay [10], the target named is T2, cynomolgus monkey EL. The assay is described as above. How it is done: as §2
The target in assay [11] is T5, human [1-305]-mouse chimeric EL (human; mouse, UniProt Q9WVG5 306-500).
T5 construct: Heparin extract, captured or detected by an anti-C2-tag antibody; also called human-mouse chimeric EL
T5 sequence: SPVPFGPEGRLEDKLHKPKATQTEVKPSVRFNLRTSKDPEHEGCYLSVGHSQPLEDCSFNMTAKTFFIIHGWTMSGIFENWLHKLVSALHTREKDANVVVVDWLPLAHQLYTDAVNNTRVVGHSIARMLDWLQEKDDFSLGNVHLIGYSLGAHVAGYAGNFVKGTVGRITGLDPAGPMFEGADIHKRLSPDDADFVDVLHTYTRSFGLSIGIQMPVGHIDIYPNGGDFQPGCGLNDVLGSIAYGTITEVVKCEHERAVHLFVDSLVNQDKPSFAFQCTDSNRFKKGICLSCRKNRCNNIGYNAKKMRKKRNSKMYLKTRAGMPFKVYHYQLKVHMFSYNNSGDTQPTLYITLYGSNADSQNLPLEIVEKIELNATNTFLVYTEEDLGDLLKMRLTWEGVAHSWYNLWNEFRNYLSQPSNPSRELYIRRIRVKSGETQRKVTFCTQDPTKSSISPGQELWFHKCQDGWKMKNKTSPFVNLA
The description is as above. The method, then: as §2

In assay [12] the target is T5, human [1-305]-mouse chimeric EL. Kind of assay: cell-based or functional assay.
Assay [13] addresses T1, baboon EL. Nature of the assay: cell-based or functional assay. The source holds these as a separate data set.
The target of assay [14] is T4, mouse EL. Kind of assay: cell-based or functional assay.

Positions count from the first letter of the chain named. Like-named read-outs stand apart in the source and are kept apart here.

A word on the EC50 (read off the curve): it is the concentration at which the effect is half-maximal. What is called koff is a measure of how fast the partners let go of each other. By kon is commonly meant a measure of how fast the partners come together.

B1: 23H8 (antibody, mouse IgG2a, V domains shown)
VH: EVQLQQSGPELLKPGASVKISCKASGYTFTDNTIHWVKQSHGKSLEWIGHINPYYGGTNNNEKFKDKATLTVDKSSSTAYMELRSLTSEDSAIYYCARKGIYYSSPFDYWGQGTTLTVSS
VL: DIQMTQTTSSLSASLGDRVTISCRASQDINNYLNWYQQKPDGTVKLLISYTSKLHSGVPSRFSGSGSGTDYSLTISNLEREDFATYFCQQGNTLPFTFGSGTNLEIK
notes: mouse IgG2a from hybridoma; also called 23H8 (mouse mAb)
For the molecule B1, the “Neutralizing activity IC50” value amounted to 1.4 nM with cynomolgus monkey EL [1]; 67 nM in the assay with rabbit EL; 3.2 nM with baboon EL [2]; 2.7 nM in the assay with cynomolgus monkey EL [3]; 1.7 nM in assay [4]; 1.7 nM in assay [12]. For the same molecule, the “EC50 (read off the curve)” value in the assay with baboon EL [5] is around 20 ng/mL; with cynomolgus monkey EL [6], around 8 ng/mL; in [7] it was around 4 ng/mL. Also, the binding result with mouse EL [8] is “no binding (tested: about 330 ng/mL)”. Besides, the results for the Kd (in the assay with baboon EL [9]; with cynomolgus monkey EL [10]; in assay [11]) were 2.9 nM, 6.1 nM and 0.87 nM, respectively. Besides, the koff in the assay with baboon EL [9] worked out at 0.00044 s⁻¹; in the assay with cynomolgus monkey EL [10], 0.00075 s⁻¹; in [11] it was 0.00011 s⁻¹. The kon was 150000 M⁻¹ s⁻¹ in the assay with baboon EL [9], 120000 M⁻¹ s⁻¹ with cynomolgus monkey EL [10] and 120000 M⁻¹ s⁻¹ in [11].

B2: 55A1 (antibody, mouse IgG2a, V domains shown)
VH: QIHLVQSGPELKKPGETVKISCKASGYTFTNYGMNWVKQAPGKGLKWMGWINTYSGVPTYAGDFKGRFAFSLETSASTAYLQINNLKNEDTATYFCARRGYYGRRYFDVWGTGTTVTVSS
VL: DIVLTQSPASLAVSLGQRATISCKASQSVDYDVDSYMHWYQQKPGQPPKLLIYAASNLASGIPARFSGGGSGTDFTLNIHPVEEEDVATYYCQQTIEDPPTFGGGTKLEIK
notes: mouse IgG2a from hybridoma; also called 55A1 (mouse mAb)
For the molecule B2, the “Neutralizing activity IC50” value turned out to be 1.3 nM in the assay with cynomolgus monkey EL [1]; 2 nM with baboon EL [2]; 1.5 nM in the assay with cynomolgus monkey EL [3]; 1.1 nM in assay [4]; 1.1 nM in assay [12]. In addition, the “EC50 (read off the curve)” value in the assay with baboon EL [5] is around 10 ng/mL; in the assay with cynomolgus monkey EL [6] it was around 5 ng/mL; in [7], around 4 ng/mL. Moreover, the binding result with mouse EL [8] is on record as “no binding (tested: about 330 ng/mL)”. Also, the figures for the Kd (with baboon EL [9]; in the assay with cynomolgus monkey EL [10]; in assay [11]) were 1.2 nM, 1.7 nM and 0.73 nM, respectively. The off-rate constant (koff) with baboon EL [9] came to 0.00042 s⁻¹; with cynomolgus monkey EL [10], 0.00044 s⁻¹; in assay [11] it was 0.00014 s⁻¹. Besides, the figures for the kon (with baboon EL [9]; in the assay with cynomolgus monkey EL [10]; in [11]) were 350000 M⁻¹ s⁻¹, 250000 M⁻¹ s⁻¹ and 190000 M⁻¹ s⁻¹, respectively.

B3: 13B3 (antibody, mouse IgG2a, V domains shown)
VH: EVQLQQSGPELLKPGASVKISCKASGYTFTEYTMHWVKQSHGKSLEWIGSINPYYGGTSYNEKFKDKATLTVDKSSNTAYMEFRSLTSEDCAVYYCARYGNYVGYFDYWGQGTTLTVSS
VL: ENVLTQSPAIMSASLGEKVTMSCRASSSVHYMYWYQQKSDASPKLWIYYTSNLAPGVPDRFSGSGSGNSYSLTISSMEGEDAATYYCQQFTSSPYTFGGGTKLEIK
notes: mouse IgG2a from hybridoma; also called 13B3 (mouse mAb)
With B3, the “Neutralizing activity IC50” value came to 3.1 nM with cynomolgus monkey EL [1]; 13 nM in the assay with rabbit EL; 2.6 nM with baboon EL [2]; 1.7 nM with cynomolgus monkey EL [3]; 4.1 nM in assay [4]; 4.1 nM in assay [12]. In addition, the “EC50 (read off the curve)” value in the assay with baboon EL [5] was around 20 ng/mL; with cynomolgus monkey EL [6], around 10 ng/mL; in assay [7], around 4 ng/mL. In addition, the binding result with mouse EL [8] was “no binding (tested: about 330 ng/mL)”. The Kd in the assay with baboon EL [9] amounted to 5.1 nM; in the assay with cynomolgus monkey EL [10], 8.7 nM; in [11], 0.91 nM. Besides, the koff in the assay with baboon EL [9] came to 0.00031 s⁻¹; with cynomolgus monkey EL [10], 0.00041 s⁻¹; in assay [11], 0.00014 s⁻¹. For the same molecule, the values for the kon (with baboon EL [9]; with cynomolgus monkey EL [10]; in assay [11]) were 61000 M⁻¹ s⁻¹, 47000 M⁻¹ s⁻¹ and 150000 M⁻¹ s⁻¹, respectively.

B4: 53A11 (antibody, mouse IgG2a, V domains shown)
VH: EVQLQQSGPELLKPGASVKISCKASGYTFTDYTMHWVKQSHGKSLEWIGGINPYYGGTTYNEKFKDKATLTVDKSSSTAYMELRSLTSEDSAVYYCAKGDYYGGSYNYWGQGTTLTVSS
VL: DIVLTQSLATLSVTPGDSVSLSCRASQDISNSLHWYQQKSHESPRLLIKYASQSISGIPSRFSGSGSGTDFTLSINSVETEDFGMYFCQQSNSWPYTFGGGTKLEIK
notes: mouse IgG2a from hybridoma; also called 53A11 (mouse mAb)
Consider B4, for which the “Neutralizing activity IC50” value with cynomolgus monkey EL [1] is 2.7 nM; with baboon EL [2], 2.4 nM; in the assay with cynomolgus monkey EL [3], 1.9 nM; in [4], 2.3 nM; in assay [12], 2.6 nM. Besides, the “EC50 (read off the curve)” value is around 20 ng/mL with baboon EL [5], around 10 ng/mL in the assay with cynomolgus monkey EL [6] and around 6 ng/mL in assay [7]. For the same molecule, the binding result with mouse EL [8] is on record as “no binding (tested: about 330 ng/mL)”. The Kd with baboon EL [9] worked out at 1.6 nM; with cynomolgus monkey EL [10] it was 4.2 nM; in [11], 0.63 nM. Besides, the koff with baboon EL [9] was determined as 0.00026 s⁻¹; in the assay with cynomolgus monkey EL [10], 0.00038 s⁻¹; in assay [11] it was 0.00011 s⁻¹. For the same molecule, the figures for the kon (with baboon EL [9]; in the assay with cynomolgus monkey EL [10]; in assay [11]) were 170000 M⁻¹ s⁻¹, 91000 M⁻¹ s⁻¹ and 180000 M⁻¹ s⁻¹, respectively.

B5: h16F6-S2 (antibody, V domains shown)
VH: QVQLVQSGAEVKKPGASVKVSCKASGYTFTTYWIAWVRQAPGQGLEWMGEILPGSAKTKYNKKFKGRVTMTRDTSTSTVYMELSSLRSEDTAVYYCAVYDYGADYWGQGTTVTVSS
VL: DIQMTQSPSSLSASVGDRVTITCKASQDVYTAVAWYQQKPGKSPKLLIYSASYRFTGVPSRFSGSGAGTDFTLTISSLQPEDFATYYCQQHYSIPRTFGGGTKVEIK
As to B5, the “Neutralizing activity IC50” value was found to be 3.3 nM in the assay with baboon EL [13] and 3 nM with mouse EL [14].

B6: h16F6-S4 (antibody, V domains shown)
VH: B5 VH
VL: B5 VL with S63T, L73F
For B6, the “Neutralizing activity IC50” value worked out at 2.6 nM with baboon EL [13] and 2 nM with mouse EL [14].

B7: h16F6-S3 (antibody, V domains shown)
VH: B5 VH
VL: B5 VL with S63T
Regarding B7, the “Neutralizing activity IC50” value with baboon EL [13] is 3.1 nM; in the assay with mouse EL [14], 3.3 nM.

The values above are taken from US20200071424A1 (SHIONOGI, published 2020).
